{"source": "paper PMC7556843", "about": "“The dynamics of linear polyubiquitin” (Science Advances, 2020)", "binders": {"B1": {"name": "Human NEMO258-350 C347S (NEMO UBAN domain) (domain or fragment, UniProt Q9Y6K9 258-350, looked up)", "chain": "MQLEDLKQQLQQAEEALVAKQEVIDKLKEEAEQHKIVMETVPVLKAQADIYKADFQAERQAREKLAEKKELLQEQLEQLQREYSKLKASSQES", "notes": "NEMO (IKKγ, NF-κB essential modulator), human, residues 258-350 (UBAN domain) with C347S; also called NEMO mutant (C347S); IKKγ; source: expressed and purified as described in Vincendeau et al. (23)"}}, "key": {"[1]": {"target": "T1, linear (M1-linked) tetraubiquitin (UniProt P0CG48 1-76; P0CG48 1-76; P0CG48 1-76; P0CG48 1-76)", "T1 construct": "ubiquitin, 76-residue unit, first of four joined head to tail (residues 1-76 of the chain); ubiquitin, 76-residue unit, second of four (residues 77-152 of the chain); ubiquitin, 76-residue unit, third of four (residues 153-228 of the chain); ubiquitin, 76-residue unit, fourth of four (residues 229-304 of the chain); Construct was a gift of P. Elliott and D. Komander; no tag or extra residues are …", "T1 sequence (P0CG48 1-304, one chain of several)": "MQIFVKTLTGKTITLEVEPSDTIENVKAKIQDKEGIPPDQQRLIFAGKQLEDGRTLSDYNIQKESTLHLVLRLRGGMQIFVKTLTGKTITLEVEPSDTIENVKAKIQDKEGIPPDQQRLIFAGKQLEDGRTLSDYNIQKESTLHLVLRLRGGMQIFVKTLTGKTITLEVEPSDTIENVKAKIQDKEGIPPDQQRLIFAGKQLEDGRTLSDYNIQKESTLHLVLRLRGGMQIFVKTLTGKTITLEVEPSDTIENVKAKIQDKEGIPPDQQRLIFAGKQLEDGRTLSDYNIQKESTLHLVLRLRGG", "experiment": "ITC; NEMO titrated into Ub3 or Ub4 in the cell; 298 K; 50 mM sodium phosphate pH 7.0, 50 mM NaCl; triplicate", "settings": "both partners purified"}, "[2]": {"target": "T2, linear (M1-linked) triubiquitin (UniProt P0CG48 1-76; P0CG48 1-76; P0CG48 1-76)", "T2 construct": "ubiquitin, 76-residue unit, first of three joined head to tail (residues 1-76 of the chain); ubiquitin, 76-residue unit, second of three (residues 77-152 of the chain); ubiquitin, 76-residue unit, third of three (residues 153-228 of the chain); Construct was a gift of P. Elliott and D. Komander; no tag or extra residues are told; One polypeptide of three ubiquitin units linked M1 to C-terminus; …", "T2 sequence (P0CG48 1-228, one chain of several)": "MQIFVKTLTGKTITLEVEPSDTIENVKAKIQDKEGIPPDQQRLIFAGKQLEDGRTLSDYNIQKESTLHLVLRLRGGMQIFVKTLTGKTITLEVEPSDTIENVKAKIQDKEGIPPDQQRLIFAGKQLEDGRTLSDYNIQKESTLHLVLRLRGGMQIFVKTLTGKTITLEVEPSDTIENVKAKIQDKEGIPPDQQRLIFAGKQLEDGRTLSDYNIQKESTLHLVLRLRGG", "experiment": "ITC; NEMO titrated into Ub3 or Ub4 in the cell; 298 K; 50 mM sodium phosphate pH 7.0, 50 mM NaCl; triplicate", "settings": "both partners purified"}, "[3]": {"target": "T1, linear (M1-linked) tetraubiquitin", "experiment": "SPR; Ub3 and Ub4 immobilised by amine coupling (456 and 721 RU); NEMO injected in a twofold series; 25°C; 50 mM sodium phosphate, 50 mM NaCl, 0.005% Tween 20, pH 7; equilibrium responses fitted to a 1:1 Langmuir isotherm", "settings": "both partners purified"}, "[4]": {"target": "T2, linear (M1-linked) triubiquitin", "experiment": "SPR; Ub3 and Ub4 immobilised by amine coupling (456 and 721 RU); NEMO injected in a twofold series; 25°C; 50 mM sodium phosphate, 50 mM NaCl, 0.005% Tween 20, pH 7; equilibrium responses fitted to a 1:1 Langmuir isotherm", "settings": "both partners purified"}, "[5]": {"target": "the molecule itself", "experiment": "SEC-MALS; SEC (Superdex 200 10/300 GL, 4°C) with static light scattering (right-angle, Viscotek TDA 305, 30°C); about 8 mg/ml; 50 mM tris-HCl, 300 mM NaCl pH 8.0 and 50 mM sodium phosphate, 50 mM NaCl pH 7.0"}, "[6]": {"target": "T1, linear (M1-linked) tetraubiquitin", "experiment": "SEC-MALS; SEC (Superdex 200 10/300 GL, 4°C) with static light scattering (right-angle, Viscotek TDA 305, 30°C); about 8 mg/ml; 50 mM tris-HCl, 300 mM NaCl pH 8.0 and 50 mM sodium phosphate, 50 mM NaCl pH 7.0", "settings": "both partners purified"}, "[7]": {"target": "T2, linear (M1-linked) triubiquitin", "experiment": "SEC-MALS; SEC (Superdex 200 10/300 GL, 4°C) with static light scattering (right-angle, Viscotek TDA 305, 30°C); about 8 mg/ml; 50 mM tris-HCl, 300 mM NaCl pH 8.0 and 50 mM sodium phosphate, 50 mM NaCl pH 7.0", "settings": "both partners purified"}}, "data": [{"binder": "B1", "values": [{"measurement": "Kd", "setting": "[1]", "value": 4.1, "unit": "µM"}, {"measurement": "dH", "setting": "[1]", "value": -4.49, "unit": "kcal/mol"}, {"measurement": "Kd", "setting": "[2]", "value": 1.6, "unit": "µM"}, {"measurement": "dH", "setting": "[2]", "value": -4.28, "unit": "kcal/mol"}, {"measurement": "Kd", "setting": "[3]", "value": 6.4, "unit": "µM"}, {"measurement": "Kd", "setting": "[4]", "value": 9.6, "unit": "µM"}, {"measurement": "binding result", "setting": "[5]", "value": "binds"}, {"measurement": "stoichiometry N", "setting": "[6]", "value": "2 NEMO:Ub4"}, {"measurement": "stoichiometry N", "setting": "[7]", "value": "2 NEMO:Ub3"}]}]}
